In patent US20110243944A1 (SHANGHAI KEXIN BIOTECH, published 2011):

Biological target: T1, RANK (Receptor Activator for Nuclear Factor κB) (UniProt Q9Y6Q6 30-616, limits assumed)
T1 construct: whole, on cells; Endogenous receptor on THP1 monocytes; also called RANKL receptor
T1 sequence (looked up): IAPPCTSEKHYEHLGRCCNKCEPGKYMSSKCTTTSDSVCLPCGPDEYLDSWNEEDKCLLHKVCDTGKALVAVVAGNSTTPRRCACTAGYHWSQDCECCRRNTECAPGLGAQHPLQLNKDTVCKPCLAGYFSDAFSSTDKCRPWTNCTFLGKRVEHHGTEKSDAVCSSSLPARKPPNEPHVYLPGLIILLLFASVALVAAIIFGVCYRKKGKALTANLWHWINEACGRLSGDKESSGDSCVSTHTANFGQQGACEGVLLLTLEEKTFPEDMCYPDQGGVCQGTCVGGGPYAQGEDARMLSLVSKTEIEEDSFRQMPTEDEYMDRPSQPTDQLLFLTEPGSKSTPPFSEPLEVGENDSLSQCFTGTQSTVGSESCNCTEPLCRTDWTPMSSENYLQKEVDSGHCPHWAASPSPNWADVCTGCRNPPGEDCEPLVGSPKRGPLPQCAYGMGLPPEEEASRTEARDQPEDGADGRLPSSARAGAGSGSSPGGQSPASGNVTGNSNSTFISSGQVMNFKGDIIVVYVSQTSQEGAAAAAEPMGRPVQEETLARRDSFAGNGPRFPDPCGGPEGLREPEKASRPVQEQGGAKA
Experiment: flow cytometry; 5 µg RIG on 1*10^6 THP1 monocytes, detected with FITC labeled anti human RANKL antibody
Experimental: 1*10⁶ THP1 monocytes were grown in MCSF and RANKL medium for 72 hours and mixed with 5 μg purified RIG protein from Implementation 1 for additional 1 hour at 4° C. 5 μl FITC labeled anti human RANKL antibody (CALTAG, CA) was then added into the mixture and flow cytometry was used to examine FITC positive cells. […] In FIG. 4, SSC-H presents the pellet number in cytoplasm, FSC-H presents the cell size, FL2-H presents PE and FL1-H presents FITC.

B1: fusion protein RIG (Fc fusion)
chain: MRRASRDYTKYLRGSEEMGGGPGAPHEGPLHAPPPPAPHQPPAASRSMFVALLGLGLGQVVCSVALFFYFRAQMDPNRISEDGTHCIYRILRLHENADFQDTTLESQDTKLIPDSCRRIKQAFQGAVQKELQHIVGSQHIRAEKAMVDGSWLDLAKRSKLEAQPFAHLTINATDIPSGSHKVSLSSWYHDRGWAKISNMTFSNGKLIVNQDGFYYLYANICFRHHETSGDLATEYLQLMVYVTKTSIKIPSSHTLMKGGSTKYWSGNSEFHFYSINVGGFFKLRSGEEISIEVSNPSLLDPDQDATYFGAFKVRDIDGSEPKSCDKTHTCPPCPAPELLGGPSVFLFPPKPKDTLMISATPEVTCVVVDVSHEDPEVKFMWYVDGVEVHNAKTKPAEEQYNSTYAVVSVLTVLHQDWLNGKEYKCKVSNKALPAPIEKTISKAKGQPAEPQVYTLPPSRDELTYNQVSLTCLVKGFYPSDIAVEWESNGQPENNYKTTPPVLDSDGSFFLYSKLTVDKSRWQQGNVFSCSVMHEALHNHYTQKSLSLSPGK
notes: also called RANKL-Fcγ fusion protein; RIG protein
B1: binds.
